Reference: publication PMC12598616, “Design and optimization of caspase-1-responsive fluorescent probes for pyroptosis imaging and anti-pyroptosis drug screening” (Chemical Science, 2025)

Tested on: THP-1 cells
Experiment: Cytotoxicity assay (CCK-8)
Format: cell-based
Settings: CCK-8, 0–50 μM, 12 h, 37 °C
Method: Cytotoxicity assay (CCK-8)
The cytotoxicity of FPy1 and YPy1 to THP-1 was evaluated by cell counting kit-8 (CCK-8). Briefly, the THP-1 cells were seeded in 96-well plates (5000 cells/well) and cultured at 37 °C for 24 hours. Various concentrations of FPy1 or YPy1 (0, 2.5, 5, 10, 20, 30, 40, 50 μM) in RPMI 1640 medium were added, and the cells were kept incubation for 12 hours. Then, the cells were washed with PBS and incubated in the 100 μL fresh medium with 10 μL CCK8 dye for an additional 2 hours. The absorbance was measured at 450 nm using a Tecan Infinite M1000 Multi-function microplate reader, and cell viability was calculated using the formula:
Cell viability (%) = [(OD test-ODblank)/(ODcontrol-ODblank)] ×100%
Intracellular imaging with FPy1 in THP-1 cells
THP-1 cells were seeded in dishes and cultured overnight. […] The fluorescence imaging was performed under the excitation at 514 nm with signal collection in the range […]
for 4 hours, the cells were further treated with Nig (10 μM) for 2 hours. […] The distribution of FPy1 was analyzed by collecting organelle-specific dye fluorescence at 495-525 nm with 488 nm excitation, while simultaneously detecting FPy1 fluorescence at 530-610 nm with 514 nm excitation. […]
Nucleus pulposus cells were isolated from discs and resuspended in 1mL DMEM/F12 medium containing 10 μM ITS-A. A total of […] were counted and transferred into centrifuge tubes. […]

–FLTDG– [FPy1, RhoB donor, hNR quencher]
cytotoxicity towards THP-1 cells: low cytotoxicity

–YVADG– [YPy1, caspase-1-responsive FRET probe with recognition peptide –YVADG–; RhoB donor, hNR quencher]
cytotoxicity towards THP-1 cells: low cytotoxicity
